# Measurements taken from patent US20250090523A1, “PHARMACEUTICAL COMPOSITION OR DRUG KIT FOR ALLEVIATING OR TREATING FIBROTIC DISEASES, AND USE THEREOF” (SHANGHAI SYNVIDA BIOTECHNOLOGY CO. LTD., priority 2021, published 2025).
# B1: LF11: anti-human Pear1 monoclonal antibody; VH SEQ ID NO: 2, VL SEQ ID NO: 18 (antibody, V domains shown)
# VH: EVQLQQSGPELVKPGASMKISCKASGYSFTGYPMNWVKQTHGKNLEWIGLINPYNGGTSYNQKFKGKATLTVDKSSSTAYMELLSLTSDESAVYYCARGGVRPFDFWGQGTLVTVSA
# VL: DIVITQSPAIMSASPGEKVTMTCSARSSVSYMYWYQQKPGSSPRLLIYDTSKLASGVPVRFSGSGSGTSYSLTISRMEAEDAATYFCQQWSSYPPTFGGGTKLEIK
# B2: LF15: anti-human Pear1 monoclonal antibody; VH SEQ ID NO: 4, VL SEQ ID NO: 19 (antibody, V domains shown)
# VH: EVQLQQSGPELVKPGASMKISCKASGYSFTGYTMNWVKQSHGENLEWIGVINPYNGGTSYNQKFKGKATLTVDKSFSTAYMEILSLTSEDSAVYYCSRGGGNSWFAYWGQGTLVTVSA
# VL: DIQMTQTSSYLSVSLGGRVTITCKASDHINNWLAWYQQKPGNAPRLLISGATSLETGVPSRFSGSGSGTDYSLTITSLQTEDVATYYCQQYWSIPTFGGGTRLEIK
# B3: LF16: anti-human Pear1 monoclonal antibody; VH SEQ ID NO: 5, VL SEQ ID NO: 20 (antibody, V domains shown)
# VH: EVQLQQSGPELVKPGASMKISCKASGYAFTGYTMNWVKQSHGKNLDWIGVINGYNGGTSYNQKFKGKATLTVDKSSSTAYMELLSLTSEDSAIYYCARGGPTTGFVYWGQGTLVTVSA
# VL: DIQMTQTSSSFSVSLGDRVTITCKASEDIYNRLAWYQQKPGNAPRLLISGATSLETGVPSRFSGSGSGKDYTLSITSLQTEDVATYYCQQYWSTPTFGAGTKLELK
# Test system: IPF fibroblasts
# Test: qPCR of extracellular matrix genes collagen 7a1 and matrix metalloproteinase inhibitor 1 in TGFβ-induced IPF fibroblasts
# Assay type: cell-based, human
# Conditions: Example 3, FIG. 4-6, TGFβ-induced IPF fibroblasts treated 48 hours, 18sRNA reference
# Source text: IPF fibroblasts of patients were purchased from the ATCC cell library.
# IPF fibroblasts in Method 2 were collected. Total mRNA was extracted by Trizol method (Invitrogen, Carlsbad, CA) according to standard protocols. Complementary DNA was synthesized using reverse transcriptase (Takara). ABI7000 Real-time PCR instrument (Life Technologies) was used to detect gene expression and the PCR primer sequences are shown in Table 1. The 18sRNA gene was used as an internal reference.
# Experimental groups including anti-Pear1 antibodies LF11, LF15, LF16 used alone, and their combinations with pirfenidone or nintedanib respectively, and experimental groups including pirfenidone or nintedanib used alone and a control group were established. TGFβ-induced IPF fibroblasts were treated for 48 hours, and then cells were collected. The qPCR method was used to detect the effect on the synthesis of extracellular matrix proteins collagen 7a1 and matrix metalloproteinase inhibitor 1 (primers are shown in Table 1).
row,Molecule,"inhibition of expression of extracellular matrix proteins (collagen 7a1, matrix metalloproteinase inhibitor 1) in IPF fibroblasts"
1,"Cc1ccc(=O)n(-c2ccccc2)c1 [pirfenidone, reference compound]",inhibit the expression of extracellular matrix proteins in IPF fibroblasts to some extent
2,"COC(=O)c1ccc2c(c1)NC(=O)/C2=C(\Nc1ccc(N(C)C(=O)CN2CCN(C)CC2)cc1)c1ccccc1 [nintedanib, reference compound]",inhibit the expression of extracellular matrix proteins in IPF fibroblasts to some extent
3,B1,inhibit the expression of extracellular matrix proteins in IPF fibroblasts to some extent
4,B2,inhibit the expression of extracellular matrix proteins in IPF fibroblasts to some extent
5,B3,inhibit the expression of extracellular matrix proteins in IPF fibroblasts to some extent
